{"source": "patent US12065466B2", "about": "“Methods and compositions for protein sequencing” (Quantum-Si Incorporated, priority 2020, dated 2024)", "molecules": {"B1": {"name": "PS528: UBR-box domain homolog, SEQ ID NO: 156 (protein, listed as Kluyveromyces lactis)", "chain": "MHSKFNHAGRICGAKFRVGEPIYRCKECSFDDTCVLCVNCFNPKDHVGHHVYTSICTEFNNGICDCGDKEAWNHELNCKGAED"}, "B2": {"name": "PS557: PS372-homologous ClpS protein, SEQ ID NO: 71 (protein, listed as Planctomycetes bacterium)", "chain": "MPTAASATESAIEDTPAPARPEVDGRTKPKRQPRYHVVLWNDDDHTYQYVVVMLQSLFGHPPERGYRLAKEVDTQGRVIVLTTTREHAELKRDQIHAFGYDRLLARSKGSMKASIEAEE"}, "B3": {"name": "PS609: single polypeptide with two tandem copies of atClpS2-V1 joined by Linker 1 (SEQ ID NO: 243) (protein)", "chain": "MSDSPVDLKPKPKVKPKLERPKLYKVMLLNDDYTPMSFVTVVLKAVFRMSEDTGRRVMMTAHRFGSAVVVVCERDIAETKAKEATDLGKEAGFPLMFTTEPEEGGGSGGGSGGGSGMSDSPVDLKPKPKVKPKLERPKLYKVMLLNDDYTPMSFVTVVLKAVFRMSEDTGRRVMMTAHRFGSAVVVVCERDIAETKAKEATDLGKEAGFPLMFTTEPEEGHHHHHHHHHHGGGSGGGSGGGSGLNDFFEAQKIEWHEGGGSGGGSGGGSGLNDFFEAQKIEWHE"}, "B4": {"name": "PS698 (protein)", "chain": "MPTAASATESAIEDTPAPARPEVDGRTKPKRQPRYHVVLWNDDDHTYQYVVVMLQSLFGHPPERGYRLAKEVDTQGRVIVLTTTREHAELKRDQIHAFGYDRLLARSKGSMKASIEAEEHHHHHHHHHHGGGSGGGSGGGSGLNDFFEAQKIEWHEGGGSGGGSGGGSGLNDFFEAQKIEWHEGSAGSAAGSGEFMDKDCEMKRTTLDSPLGKLELSGCEQGLHEIKLLGKGTSAADAVEVPAPAAVLGGPEPLMQATAWLNAYFHQPEAIEEFPVPALHHPVFQQESFTRQVLWKLLKVVKFGEVISYQQLAALAGNPAATAAVKTALSGNPVPILIPCHRVVSSSGAVGGYEGGLAVKEWLLAHEGHRLGKPGLG"}}, "key": {"[1]": {"molecular_target": "N-terminal arginine peptide (alanine at the penultimate position)", "assay": "Fluorescence polarization binding affinity of tandem recognizers, RA peptide", "procedure": "Three different constructs were designed and expressed for each multivalent UBR-box binder: PS690, PS691, and PS692 (Bis-PS621 binders having Linker 1, Linker 2, and Linker 3, respectively); and PS693, PS694, and PS695 (Bis-PS528 binders having Linker 1, Linker 2, and Linker 3, respectively). Fluorescence polarization studies were performed to evaluate the binding affinity of each of the multivalent UBR-box binders, and the corresponding monomeric binders, for a peptide having an N-terminal arginine residue with an alanine residue at the penultimate position. The KD values obtained from these studies are reported below in Table 11."}, "RA and KA peptides": {"test_system": "RA and KA peptides", "assay": "Fluorescence polarization binding titration of UBR-box domain candidates (KD)", "conditions": "RA peptide", "procedure": "The binding affinity of selected UBR-box domain candidates was then evaluated by measuring KD (dissociation constant) values for N-terminal R and K peptides. Assays were performed for RA and KA peptides at increasing concentration of UBR protein (FIG. 32G, top plots). KD values were determined from the binding titration curves."}, "dye-labeled RL peptide": {"test_system": "dye-labeled RL peptide", "assay": "Peptide-on-chip recognition assay for N-terminal arginine peptide", "assay_type": "binding", "procedure": "Peptide-on-chip recognition assays for N-terminal arginine peptide were performed with PS621 and PS528. Both PS528 and PS621 recognized N-terminal R, and binding to dye-labeled RL peptide at the single-molecule level was confirmed in these recognition assays, with average pulse width of approximately 60 ms."}, "[2]": {"test_system": "amino acid at a terminal position of a polypeptide", "conditions": "Table 2; amino acid identity at a terminal position (phosphotyrosine also internal); inferred from literature and/or demonstrated by the inventors; cited from earlier work"}, "[3]": {"test_system": "labeled peptide (XAKLDEESILKQK-FITC (SEQ ID NO: 238)); RA, KA, HA", "assay": "Single point fluorescence polarization assay of UBR-streptavidin complex", "assay_type": "binding", "procedure": "Single point fluorescence polarization assays were then performed for selected candidates. These assays measured the interaction of labeled peptide (XAKLDEESILKQK-FITC (SEQ ID NO: 238)) with UBR-streptavidin complex in a format in which these molecules are free in solution. Measurements of polarization response (millipolarization, mP) and total intensity for RA, KA, and HA peptides were performed."}, "[4]": {"test_system": "immobilized peptides containing N-terminal R, K or H", "assay": "Biolayer interferometry of UBR-box domain homologs", "assay_type": "binding", "procedure": "The amino acid binding properties of UBR-box domain homologs were evaluated by biolayer interferometry. Peptides containing an N-terminal arginine (R), followed by different amino acids in the penultimate position, were immobilized on a biolayer interferometry sensor surface, allowed to bind to UBR-box protein, and incubated in buffer to allow the UBR-box molecules to dissociate. […] FIG. 32C is a heatmap showing results measured for 24 UBR-box homologs against 14 polypeptides containing N-terminal R followed by different amino acids in the penultimate position.\nUBR proteins bind to the basic N-terminal residues R, K, and H as part of the conserved N-end rule pathway. To identify high-affinity UBR proteins with properties favorable for use in sequencing, a diverse panel of uncharacterized UBR-box domain homologs from 44 species (PS501-PS544) was designed. UBR-box domain homologs were expressed, purified, and evaluated for binding to N-terminal amino acids by biolayer interferometry. Measurements were carried out at 30° C. for each protein for R, K and H binding. The amino-acid binding profile of each new homolog was first evaluated by biolayer interferometry using a single-point screening assay. All peptides in this screen contained a penultimate alanine (A) and consisted of the sequence XAKLDEESILKQK (SEQ ID NO: 238), where X is R, K, or H.\nTo evaluate the effect of penultimate amino acids on arginine binding, UBR box-domain homologs were evaluated for binding to 14 different peptides with N-terminal RX (peptide sequence: RXGGGDDDFFK (SEQ ID NO: 241)). The selected RX dipeptides are the 14 most frequently found in the human proteome."}, "[5]": {"test_system": "FITC labeled N-terminal LA peptide", "assay": "Stopped-flow association rate constant (kon), PS557 derivatives", "assay_type": "binding", "procedure": "Stopped-flow assays were performed to measure the association (kon) and dissociation (koff) rates for PS557, atClpS2-V1, and fusion proteins derived by C-terminal addition of protein shields. To measure the on-rate constant by stopped-flow, the binder was rapidly mixed with FITC labeled peptide, and the reaction was followed in real time. N-terminal LA peptide was used for PS557 derivatives and N-terminal FA peptide was used for atClpS2-V1 derivatives. In this assay, the fluorescence signal decreased due to quenching upon protein binding. The averaged traces obtained at multiple concentrations of binder were fitted with a decay equation to derive association rates (FIG. 37A, middle panel). A linear slope from the plot of association rates against different binder concentrations gave the kon rate constant (FIG. 37A, bottom panel)."}, "[6]": {"test_system": "amino acid at a terminal position of a polypeptide", "assay": "Amino acid binding preference of recognition proteins (Tables 1 and 2)", "conditions": "Table 1, ClpS proteins; amino acid identity at a terminal position of a polypeptide; inferred from literature and/or demonstrated by the inventors", "from_the_text": "It should be appreciated that these sequences and other examples described herein are meant to be non-limiting, and recognition molecules in accordance with the application can include any homologs, variants thereof, or fragments thereof minimally containing domains or subdomains responsible for peptide recognition."}, "[7]": {"test_system": "peptides with different N-terminal amino acids, penultimate alanine", "assay": "Biolayer interferometry of multivalent amino acid binders", "assay_type": "binding", "procedure": "The amino acid binding profile of each Bis-atClpS2-V1 binder (PS609, PS610, and PS611) was evaluated by biolayer interferometry as described above. The monovalent atClpS2-V1 was run as a control. Measurements with each binder were carried out for the amino acids F, Y, and W, along with I, L, M, and V as negative controls. All peptides contained a penultimate alanine (A). Response curves for the tandem binders PS609, PS610, and PS611 are shown in FIGS. 35B, 35C, and 35D, respectively.\nThe multivalent binder PS612 is a polypeptide that contains tandem copies of two different ClpS protein monomers (atClpS2-V1 and PS372). The amino acid binding profile of PS612 was evaluated by biolayer interferometry as described above. The monovalent binders atClpS2-V1 and PS372 were separately run as controls.\nThe multivalent binder PS614 is a polypeptide that contains two copies of the ClpS binder PS372 oriented in tandem. The amino acid binding profile of PS614 was evaluated by biolayer interferometry as described above.\nThe multivalent binders PS637, PS638, and PS639 are polypeptides that each contain two copies of the ClpS binder PS557 oriented in tandem and separated by Linker 1, Linker 2, and Linker 3, respectively. The amino acid binding profiles of each binder was evaluated by biolayer interferometry as described above."}, "[8]": {"test_system": "labeled N-terminal LA peptide", "assay": "Stopped-flow dissociation rate (koff), PS557 derivatives", "assay_type": "binding", "conditions": "excess unlabeled trap peptide", "from_the_text": "To measure the dissociation rate (koff) by stopped-flow, complexes of binder bound to labeled peptide substrate at an optimal concentration were rapidly mixed with excess unlabeled trap peptide. […] The averaged raw traces were fitted with an exponential equation to determine the koff (FIG. 37B, bottom panel)."}, "[9]": {"molecular_target": "N-terminal phenylalanine peptide (alanine at the penultimate position)", "assay": "Fluorescence polarization binding affinity of tandem recognizers, FA peptide", "procedure": "The multivalent binder PS651 was designed as a tandem fusion molecule expressed from a single coding sequence containing segments encoding three copies of atClpS2-V1 (Tris-atClpS2-V1) joined end-to-end by segments encoding a flexible peptide linker (Linker 2). Fluorescence polarization studies were performed with PS651, the Bis-atClpS2-V1 binders (PS609, PS610, PS611), and the monomeric binder atClpS2-V1, to determine the binding affinity of each for a peptide having an N-terminal phenylalanine residue with an alanine residue at the penultimate position. The KD values obtained from these studies are reported below in Table 9."}}, "note": "Where two headings read alike, the source gives them in different places.", "data": [{"molecule": "B1", "values": [{"measurement": "Kd", "setting": "[1]", "value": 403, "unit": "nM"}, {"measurement": "Kd", "setting": "RA and KA peptides", "value": 460, "unit": "nM"}, {"measurement": "average pulse width", "setting": "dye-labeled RL peptide", "value": "approximately 60 ms"}, {"measurement": "Binding Pref.", "setting": "[2]", "value": "K, R, H"}, {"measurement": "polarization response with RA peptide", "setting": "[3]", "value": "bind to RA peptides with strong responses"}, {"measurement": "binding range for RX dipeptides", "setting": "[4]; 14 peptides RXGGGDDDFFK (SEQ ID NO: 241)", "value": "extensive binding range for RX dipeptides"}, {"measurement": "binding affinity to N-terminal R with different penultimate amino acids", "setting": "[4]; 14 polypeptides containing N-terminal R", "value": "high binding affinity to R in the presence of a wide range of penultimate amino acids"}, {"measurement": "binding to RA/KA/HA peptides (single-point screening)", "setting": "[4]; 30° C., XAKLDEESILKQK", "value": "favorable binding trajectories to RA and KA peptides with notably high response for RA peptide"}, {"measurement": "dissociation trajectory and HA peptide binding", "setting": "[4]; 30° C., XAKLDEESILKQK", "value": "slower dissociation trajectory and displayed binding to HA peptide"}]}, {"molecule": "B2", "values": [{"measurement": "LA kon", "setting": "[5]", "value": "1.8e+06", "unit": "M⁻¹ s⁻¹"}, {"measurement": "Binding Pref.", "setting": "[6]", "value": "I, L, V"}, {"measurement": "N-terminal amino acids bound (biolayer interferometry)", "setting": "[7]", "value": "binds N-terminal I, L, and V"}, {"measurement": "LA koff", "setting": "[8]", "value": 0.22, "unit": "s⁻¹"}]}, {"molecule": "B3", "values": [{"measurement": "Kd", "setting": "[9]", "value": 221, "unit": "nM"}]}, {"molecule": "B4", "values": [{"measurement": "LA kon", "setting": "[5]", "value": "4e+06", "unit": "M⁻¹ s⁻¹"}, {"measurement": "LA koff", "setting": "[8]", "value": 0.19, "unit": "s⁻¹"}]}]}
